# Laboratory results as given in the RNAGym collection of RNA variant scans (doi:10.1038/ncomms11558).
# B1: mRNA-splicing (parent)
# chain: GAUCCAGAUCUAACUUGGGGUGGCUUUGUCUUCUUCUUUUGCCAAUUCCACUAAUUGUUUGGG
# Variants of: B1
# Assay: exon inclusion enrichment score (log2 ratio to wild type); higher = more inclusion; FAS exon 6 minigene, HEK293
row,Variant,exon inclusion enrichment score
1,UAUCCAGAUCUAACUUGGGGUGGCUUUGUCUUCUUCUUUUGCCAAUUCCACUAAUUGUUUGGG,-5.1
2,AAUCCAGAUCUAACUUGGGGUGGCUUUGUCUUCUUCUUUUGCCAAUUCCACUAAUUGUUUGGG,-3.07
3,CAUCCAGAUCUAACUUGGGGUGGCUUUGUCUUCUUCUUUUGCCAAUUCCACUAAUUGUUUGGG,-4.23
4,GCUCCAGAUCUAACUUGGGGUGGCUUUGUCUUCUUCUUUUGCCAAUUCCACUAAUUGUUUGGG,-0.31
5,GGUCCAGAUCUAACUUGGGGUGGCUUUGUCUUCUUCUUUUGCCAAUUCCACUAAUUGUUUGGG,0.511
6,GUUCCAGAUCUAACUUGGGGUGGCUUUGUCUUCUUCUUUUGCCAAUUCCACUAAUUGUUUGGG,-0.046
7,GAUCCAGAUCUAAGUUGGGGUGGCUUUGUCUUCUUCUUUUGCCAAUUCCACUAAUUGUUUGGG,-0.135
8,GAUCCAGAUCUAAAUUGGGGUGGCUUUGUCUUCUUCUUUUGCCAAUUCCACUAAUUGUUUGGG,-0.554
9,GAUCCAGAUCUAAUUUGGGGUGGCUUUGUCUUCUUCUUUUGCCAAUUCCACUAAUUGUUUGGG,-0.791
10,GAUCCAGAUCUAACUUGGGGUGGCUAUGUCUUCUUCUUUUGCCAAUUCCACUAAUUGUUUGGG,0.39
11,GAUCCAGAUCUAACUUGGGGUGGCUCUGUCUUCUUCUUUUGCCAAUUCCACUAAUUGUUUGGG,-0.07
12,GAUCCAGAUCUAACUUGGGGUGGCUGUGUCUUCUUCUUUUGCCAAUUCCACUAAUUGUUUGGG,-0.547
13,GAUCCAGAUCUAACUUGGGGUGGCCUUGUCUUCUUCUUUUGCCAAUUCCACUAAUUGUUUGGG,0.429
14,GAUCCAGAUCUAACUUGGGGUGGCGUUGUCUUCUUCUUUUGCCAAUUCCACUAAUUGUUUGGG,0.284
15,GAUCCAGAUCUAACUUGGGGUGGCAUUGUCUUCUUCUUUUGCCAAUUCCACUAAUUGUUUGGG,0.211
16,GAUCCAGGUCUAACUUGGGGUGGCUUUGUCUUCUUCUUUUGCCAAUUCCACUAAUUGUUUGGG,0.152
17,GAUCCAGUUCUAACUUGGGGUGGCUUUGUCUUCUUCUUUUGCCAAUUCCACUAAUUGUUUGGG,-0.416
18,GAUCCAGCUCUAACUUGGGGUGGCUUUGUCUUCUUCUUUUGCCAAUUCCACUAAUUGUUUGGG,0.321
19,GAUCCAGAUCUAACUUGGGGUGGGUUUGUCUUCUUCUUUUGCCAAUUCCACUAAUUGUUUGGG,-6.71
20,GAUCCAGAUCUAACUUGGGGUGGAUUUGUCUUCUUCUUUUGCCAAUUCCACUAAUUGUUUGGG,0.043
21,GAUCCAGAUCUAACUUGGGGUGGUUUUGUCUUCUUCUUUUGCCAAUUCCACUAAUUGUUUGGG,-1.64
22,GAUCCAGAUUUAACUUGGGGUGGCUUUGUCUUCUUCUUUUGCCAAUUCCACUAAUUGUUUGGG,0.024

row,Variant,exon inclusion enrichment score
1,GAUCCAGAUAUAACUUGGGGUGGCUUUGUCUUCUUCUUUUGCCAAUUCCACUAAUUGUUUGGG,-0.393
2,GAUCCAGAUGUAACUUGGGGUGGCUUUGUCUUCUUCUUUUGCCAAUUCCACUAAUUGUUUGGG,-0.124
3,GAUCCAGAUCUAGCUUGGGGUGGCUUUGUCUUCUUCUUUUGCCAAUUCCACUAAUUGUUUGGG,-0.194
4,GAUCCAGAUCUAUCUUGGGGUGGCUUUGUCUUCUUCUUUUGCCAAUUCCACUAAUUGUUUGGG,-0.29
5,GAUCCAGAUCUACCUUGGGGUGGCUUUGUCUUCUUCUUUUGCCAAUUCCACUAAUUGUUUGGG,1.26
6,GAUCCAGAUCUAACUUAGGGUGGCUUUGUCUUCUUCUUUUGCCAAUUCCACUAAUUGUUUGGG,-2.56
7,GAUCCAGAUCUAACUUUGGGUGGCUUUGUCUUCUUCUUUUGCCAAUUCCACUAAUUGUUUGGG,-0.191
8,GAUCCAGAUCUAACUUCGGGUGGCUUUGUCUUCUUCUUUUGCCAAUUCCACUAAUUGUUUGGG,-0.067
9,GAUCCAGAUCUAACUUGGGGUGGCUUCGUCUUCUUCUUUUGCCAAUUCCACUAAUUGUUUGGG,0.72
10,GAUCCAGAUCUAACUUGGGGUGGCUUGGUCUUCUUCUUUUGCCAAUUCCACUAAUUGUUUGGG,-0.115
11,GAUCCAGAUCUAACUUGGGGUGGCUUAGUCUUCUUCUUUUGCCAAUUCCACUAAUUGUUUGGG,-0.647
12,GAUCCAUAUCUAACUUGGGGUGGCUUUGUCUUCUUCUUUUGCCAAUUCCACUAAUUGUUUGGG,-2.07
13,GAUCCAAAUCUAACUUGGGGUGGCUUUGUCUUCUUCUUUUGCCAAUUCCACUAAUUGUUUGGG,-1.15
14,GAUCCACAUCUAACUUGGGGUGGCUUUGUCUUCUUCUUUUGCCAAUUCCACUAAUUGUUUGGG,-0.443
15,GAUCCAGAUCUAACUUGGGGUGGCUUUCUCUUCUUCUUUUGCCAAUUCCACUAAUUGUUUGGG,-1.84
16,GAUCCAGAUCUAACUUGGGGUGGCUUUUUCUUCUUCUUUUGCCAAUUCCACUAAUUGUUUGGG,-1.36
17,GAUCCAGAUCUAACUUGGGGUGGCUUUAUCUUCUUCUUUUGCCAAUUCCACUAAUUGUUUGGG,-1.07
18,GAUCCGGAUCUAACUUGGGGUGGCUUUGUCUUCUUCUUUUGCCAAUUCCACUAAUUGUUUGGG,0.571
19,GAUCCCGAUCUAACUUGGGGUGGCUUUGUCUUCUUCUUUUGCCAAUUCCACUAAUUGUUUGGG,-0.522
20,GAUCCUGAUCUAACUUGGGGUGGCUUUGUCUUCUUCUUUUGCCAAUUCCACUAAUUGUUUGGG,-0.25
21,GAUCCAGAUCUAACUUGGGGAGGCUUUGUCUUCUUCUUUUGCCAAUUCCACUAAUUGUUUGGG,0.125
22,GAUCCAGAUCUAACUUGGGGCGGCUUUGUCUUCUUCUUUUGCCAAUUCCACUAAUUGUUUGGG,0.243

row,Variant,exon inclusion enrichment score
1,GAUCCAGAUCUAACUUGGGGGGGCUUUGUCUUCUUCUUUUGCCAAUUCCACUAAUUGUUUGGG,-5.29
2,GAUCCAGAUCUAACUGGGGGUGGCUUUGUCUUCUUCUUUUGCCAAUUCCACUAAUUGUUUGGG,-0.702
3,GAUCCAGAUCUAACUCGGGGUGGCUUUGUCUUCUUCUUUUGCCAAUUCCACUAAUUGUUUGGG,0.271
4,GAUCCAGAUCUAACUAGGGGUGGCUUUGUCUUCUUCUUUUGCCAAUUCCACUAAUUGUUUGGG,-0.773
5,GAUCCAGAUCUAACUUGCGGUGGCUUUGUCUUCUUCUUUUGCCAAUUCCACUAAUUGUUUGGG,0.301
6,GAUCCAGAUCUAACUUGUGGUGGCUUUGUCUUCUUCUUUUGCCAAUUCCACUAAUUGUUUGGG,0.258
7,GAUCCAGAUCUAACUUGAGGUGGCUUUGUCUUCUUCUUUUGCCAAUUCCACUAAUUGUUUGGG,-0.636
8,GAUCCAGAUCUAACUUGGGGUGGCUUUGACUUCUUCUUUUGCCAAUUCCACUAAUUGUUUGGG,0.257
9,GAUCCAGACCUAACUUGGGGUGGCUUUGUCUUCUUCUUUUGCCAAUUCCACUAAUUGUUUGGG,1.28
10,GAUCCAGAGCUAACUUGGGGUGGCUUUGUCUUCUUCUUUUGCCAAUUCCACUAAUUGUUUGGG,-0.183
11,GAUCCAGAACUAACUUGGGGUGGCUUUGUCUUCUUCUUUUGCCAAUUCCACUAAUUGUUUGGG,-0.097
12,GAUCCAGAUCGAACUUGGGGUGGCUUUGUCUUCUUCUUUUGCCAAUUCCACUAAUUGUUUGGG,0.304
13,GAUCCAGAUCCAACUUGGGGUGGCUUUGUCUUCUUCUUUUGCCAAUUCCACUAAUUGUUUGGG,0.559
14,GAUCCAGAUCAAACUUGGGGUGGCUUUGUCUUCUUCUUUUGCCAAUUCCACUAAUUGUUUGGG,0.08
15,GAGCCAGAUCUAACUUGGGGUGGCUUUGUCUUCUUCUUUUGCCAAUUCCACUAAUUGUUUGGG,-0.136
16,GACCCAGAUCUAACUUGGGGUGGCUUUGUCUUCUUCUUUUGCCAAUUCCACUAAUUGUUUGGG,-0.472
17,GAACCAGAUCUAACUUGGGGUGGCUUUGUCUUCUUCUUUUGCCAAUUCCACUAAUUGUUUGGG,-0.683
18,GAUCCAGAUCUAACUUGGGGUGUCUUUGUCUUCUUCUUUUGCCAAUUCCACUAAUUGUUUGGG,-0.765
19,GAUCCAGAUCUAACUUGGGGUGACUUUGUCUUCUUCUUUUGCCAAUUCCACUAAUUGUUUGGG,0.238
20,GAUCCAGAUCUAACUUGGGGUGCCUUUGUCUUCUUCUUUUGCCAAUUCCACUAAUUGUUUGGG,-0.164
21,GAUCCAGAUCUGACUUGGGGUGGCUUUGUCUUCUUCUUUUGCCAAUUCCACUAAUUGUUUGGG,0.431
22,GAUCCAGAUCUUACUUGGGGUGGCUUUGUCUUCUUCUUUUGCCAAUUCCACUAAUUGUUUGGG,-0.405

row,Variant,exon inclusion enrichment score
1,GAUCCAGAUCUCACUUGGGGUGGCUUUGUCUUCUUCUUUUGCCAAUUCCACUAAUUGUUUGGG,0.251
2,GAUUCAGAUCUAACUUGGGGUGGCUUUGUCUUCUUCUUUUGCCAAUUCCACUAAUUGUUUGGG,-2.86
3,GAUGCAGAUCUAACUUGGGGUGGCUUUGUCUUCUUCUUUUGCCAAUUCCACUAAUUGUUUGGG,-0.794
4,GAUACAGAUCUAACUUGGGGUGGCUUUGUCUUCUUCUUUUGCCAAUUCCACUAAUUGUUUGGG,-2.11
5,GAUCCAGAUCUAACUUGGGUUGGCUUUGUCUUCUUCUUUUGCCAAUUCCACUAAUUGUUUGGG,-2.17
6,GAUCCAGAUCUAACUUGGGAUGGCUUUGUCUUCUUCUUUUGCCAAUUCCACUAAUUGUUUGGG,0.232
7,GAUCCAGAUCUAACUUGGGCUGGCUUUGUCUUCUUCUUUUGCCAAUUCCACUAAUUGUUUGGG,0
8,GAUCAAGAUCUAACUUGGGGUGGCUUUGUCUUCUUCUUUUGCCAAUUCCACUAAUUGUUUGGG,-0.066
9,GAUCGAGAUCUAACUUGGGGUGGCUUUGUCUUCUUCUUUUGCCAAUUCCACUAAUUGUUUGGG,-0.076
10,GAUCUAGAUCUAACUUGGGGUGGCUUUGUCUUCUUCUUUUGCCAAUUCCACUAAUUGUUUGGG,-4.59
11,GAUCCAGAUCUAACCUGGGGUGGCUUUGUCUUCUUCUUUUGCCAAUUCCACUAAUUGUUUGGG,0.272
12,GAUCCAGAUCUAACGUGGGGUGGCUUUGUCUUCUUCUUUUGCCAAUUCCACUAAUUGUUUGGG,0.039
13,GAUCCAGAUCUAACAUGGGGUGGCUUUGUCUUCUUCUUUUGCCAAUUCCACUAAUUGUUUGGG,-0.077
14,GAUCCAGAUCUAACUUGGUGUGGCUUUGUCUUCUUCUUUUGCCAAUUCCACUAAUUGUUUGGG,0.032
15,GAUCCAGAUCUAACUUGGAGUGGCUUUGUCUUCUUCUUUUGCCAAUUCCACUAAUUGUUUGGG,0.892
16,GAUCCAGAUCUAACUUGGCGUGGCUUUGUCUUCUUCUUUUGCCAAUUCCACUAAUUGUUUGGG,0.027
17,GAUCCAGAUCUAACUUGGGGUUGCUUUGUCUUCUUCUUUUGCCAAUUCCACUAAUUGUUUGGG,-0.589
18,GAUCCAGAUCUAACUUGGGGUAGCUUUGUCUUCUUCUUUUGCCAAUUCCACUAAUUGUUUGGG,-2.09
19,GAUCCAGAUCUAACUUGGGGUCGCUUUGUCUUCUUCUUUUGCCAAUUCCACUAAUUGUUUGGG,0.067
